Source: patent US20210040201A1 (Innovent, published 2021)
Read-outs that look alike come from different tables or passages of the source.

Legend:
[1] = target: T1, Human TIGIT expressed on the surface of cells (human, UniProt Q495A1 22-244); assay: flow cytometry competition against 50 nM human CD155-mouse IgG2a Fc on CHOS cells expressing human TIGIT; positive control
T1 construct: also called human TIGIT expressed on the surface of CHO cells; human TIGIT overexpressed on CHO cells
T1 sequence: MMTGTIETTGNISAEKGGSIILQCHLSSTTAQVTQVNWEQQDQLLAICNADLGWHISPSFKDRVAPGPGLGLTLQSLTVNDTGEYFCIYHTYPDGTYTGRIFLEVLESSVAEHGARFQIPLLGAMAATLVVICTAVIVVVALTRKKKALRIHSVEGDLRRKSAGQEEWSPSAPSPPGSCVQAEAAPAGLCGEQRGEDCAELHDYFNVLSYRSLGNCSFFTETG

[2] = target: T1, Human TIGIT expressed on the surface of …; assay: cell-based or functional assay
[3] = target: T1, Human TIGIT expressed on the surface of …; assay: flow cytometry on CHOS cells expressing human TIGIT; reference antibody
[4] = target: T1, Human TIGIT expressed on the surface of …; assay: flow cytometry competition against 50 nM human CD155-mouse IgG2a Fc on CHOS cells expressing human TIGIT; positive control; remark: listed apart in the source
[5] = target: T2, Monkey TIGIT-his (ACRO, TIT-05223) (monkey); assay: BLI (ForteBio), antibody loaded on AHQ sensor, 100 nM TIGIT-his, 1:1 model, monovalent
T2 construct: Bought protein

[6] = target: T3, Human TIGIT-his (ACRO, TIT-H52H3) (human, UniProt Q495A1 22-141); assay: as above
T3 construct: Bought protein
T3 sequence: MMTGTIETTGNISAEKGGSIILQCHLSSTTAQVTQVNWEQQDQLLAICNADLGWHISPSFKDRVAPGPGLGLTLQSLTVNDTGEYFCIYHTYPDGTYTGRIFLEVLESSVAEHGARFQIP

[7] = target: T1, Human TIGIT expressed on the surface of …; assay: flow cytometry on CHO cells overexpressing human TIGIT; reference antibody in the run with CHO-expressed antibodies
[8] = target: T1, Human TIGIT expressed on the surface of …; assay: cell-based or functional assay; remark: listed apart in the source

IC50 [1]: 0.166 nM
EC50, MOA-based assay (luciferase reporter under IL2 promoter), positive control in the run with CHO-expressed antibodies [2]: 0.342 nM
EC50 [3]: 0.436 nM
IC50 [4]: 0.154 nM
Kd [5]: 0.472 nM
Kd [6]: 2.34 nM
EC50 [7]: 0.185 nM
EC50, MOA-based assay (luciferase reporter under IL2 promoter) [8]: 0.838 nM
B1: 31C6 (anti-human TIGIT reference antibody from Merck) (antibody, V domains shown)
VH: EVQLVQSGAEVKKPGASVKVSCKASGYTFSSYVMHWVRQAPGQGLEWIGYIDPYNDGAKYAQKFQGRVTLTSDKSTSTVYMELSSLRSEDTAVYYCARGGPYGWYFDVWGQGTTVTVSS
VL: DIQMTQSPSSLSASVGDRVTITCRASEHIYSYLSWYQQKPGKAPKLLIYNAKTLAEGVPSRFSGSGSGTDFTLTISSLQPEDFATYYCQHHFGSPLTFGQGTRLEIK
